According to the RNAGym collection of RNA variant scans (doi:10.1073/pnas.2313332121):
Fewer inactive variants are shown than the library holds.

B1: TPR 5TU (parent)
chain: GGAUCUUCUCGAUCUAACAAAAAAGACAAAUCUGCCACAAAGCUUGAGAGCAUCUUCGGAUGCAGAGGCGGCAGCCUUCGGUGGCGCGAUAGCGCCAACGUUCUCAACUAUGACACGCAAAACGCGUGCUCCGUUGAAUGGAGUUUAUCAUG

Variants of: B1
Test: polymerase ribozyme fitness, log enrichment relative to wild type (log ratio); higher = more active; in vitro selection for triplet polymerase activity
How it was run: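 Only genotypes with ≥10 input reads and ≥1 read per output were kept after Illumina sequencing of input and output libraries. These libraries were PCR-built, transcribed mutants of each subunit of a heterodimeric triplet polymerase ribozyme, each put through one triplicate in vitro selection round with frozen incubation at −7 °C, gel excision of extended constructs, streptavidin-bead capture and RT-PCR. Fitness is a logarithmic ratio of genotype enrichment to wild-type enrichment, from inverse-variance-weighted replicate averages, with the logarithm in base 2.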

Variant | polymerase ribozyme fitness (log ratio)
C32U A52C U55G C118U | ≤ -4.2
A97U C132A | -2.65
U53A G59A C85A G88A U151A | ≤ -4.2
G11U A16C A24G G58C C87A C99U | ≤ -4.2
A28U C85A | -4.11
A23U A29U C85A A115G G143C | ≤ -4.2
G88U C95G | -3.65
A17G U101A C105G | -3.18
U56A C96U A119U | -0.585
C5G G25C C54A C75G G83U | ≤ -4.2
A52G A64U U101G A107C C125G | ≤ -4.2
G80U A91C A106U C132G | ≤ -4.2
A16G G80A | -0.775
U33A G50C U56A C76A G81C | ≤ -4.2
C27G C85A U90G | ≤ -4.2
C27G C76A | -3.63
A39G A115C | -3.17
U44A G50C | ≤ -4.2
G11A U13C C36U A49U A60U | -4.19
A22C C35G U44A A60G C76A C95U G128A A150C U151G | ≤ -4.2
G50A C57U C76U C125U A142C U144G A150G | -3.98
G42C C43U C54U A98G A120G | ≤ -4.2
C69A U82G | -1.91
A21G A24U U53A G94A | -0.529

Variant | polymerase ribozyme fitness (log ratio)
C57G C93U A115U | -3.44
A52C A73G A138G | ≤ -4.2
A52C U61A G65A C95A G141U | -2.36
U6A A28G G59A C93U C99G C108A G140A G141U | ≤ -4.2
C18U A19G G94A | -2.01
C5G C76U | -0.335
U44G G70C G83A C116A G152A | ≤ -4.2
C76U C85U U101C U145G | -0.2
U56A U78A A121C | ≤ -4.2
A12U A26U G46C C57U C93U C125G U127G A138G | ≤ -4.2
A52C U56C C103G G143C | -4.12
A40C C51U G84A | -0.15
C14G G83A G117U U127G | ≤ -4.2
C54A G83U | -1.19
A113U G117U | -2.07
U45G G50A A73C C93U C96U C99A C108A G112C G124U U127G A142G C149G | ≤ -4.2
C57A C95A C96U G141A | -4.07
C10U U45G A60C C85U | ≤ -4.2
A39C A41C G65A C96A C103A U111G | ≤ -4.2
C18U G25C C43G C99A | ≤ -4.2
C14U A23U U31A A47C G92C C96G C131A | ≤ -4.2
A47U A89G C131A | ≤ -4.2
A47G C87U U101C | 0.535
C5A G11C C85U A119C C131G G141C | 0.451

Variant | polymerase ribozyme fitness (log ratio)
G70A C99U U134G G140C G143C | ≤ -4.2
A20C C36U A47C | -1.91
A29U C54U G62A A113G U139G U148A | ≤ -4.2
U44A G84A C85G C95G C99U | -3.94
C35A | -2.69
A22G C38U C95U A107C G128A | ≤ -4.2
C69G G83C | -4.05
A49C C57U G74U U90A C93G C95U C103G A138C | ≤ -4.2
C32G G42U U55A U61A C85A C95A A107U | ≤ -4.2
A20C G50C U55G C105U | ≤ -4.2
C38A U82A G84U A120C | -1.37
A37C G50U A52C U90C G94C C116U | ≤ -4.2
A73U G83C C123G | -2.93
A47C C63A G83A | -1.37
A24U G83U G136A U146C A150G | -3.59
A21U A23U A24C C54U G81A C85U A147C | ≤ -4.2
G117U G143A | -0.982
A21G A52C C75G C85U A89G C96G A150G | -3.89
G83A U104G A120G | -1.21
U6G A28U A41G G88C G143A U144C U146G | ≤ -4.2
A23G C54G U56A A142C | ≤ -4.2
G58C C76G U77G | ≤ -4.2
A12U A147U | 0.945
U45A A47C C54A C57A U90C G140C | ≤ -4.2

Variant | polymerase ribozyme fitness (log ratio)
G50U U55A G126U | -0.316
A16U C54A U101G A119U C149U | -4.08
A39G C87A C108U U135C | ≤ -4.2
U44A A73U C105G A120G | ≤ -4.2
G46A G50A | -0.957
A39C G84A C85G U90G A91G U111A | ≤ -4.2
C14A G59A U82A G84U | -4.06
G94C C96U G136A G140A | ≤ -4.2
A20U A137C | -3.99
G11A A91G C114U U144C | -4.14
C72G C99U U101G A142U | ≤ -4.2
A47U G81A C125G A150C | ≤ -4.2
A49C U55A G86A C99G A142U | ≤ -4.2
C10G A97U U130G | ≤ -4.2
C96U A122G | -0.14
A21C G59A A113G | -1.92
A115G G124C C132G A137U | ≤ -4.2
C14G U31A A40U U90G G92A A107G G112A G133U G141A | ≤ -4.2
A21U C43U C99G A120G G126U | ≤ -4.2
A106U U135A A150U | -1.22
G94A A120C | -0.523
U15G G74A C96U C125A G141U | ≤ -4.2
G92C A122C A150G | -2.28
C8U A52U C54U G83A C118A U127G | ≤ -4.2

Variant | polymerase ribozyme fitness (log ratio)
A17G G71A | -3.06
U9A G25C C38U G71U U135C A147G | ≤ -4.2
G11A A49G A60U | -2.63
C85A C103A C149U | -3.27
A37C A41U A52C C118A | -3.42
G92A A98G | -3
C43G U44A G58A G88U C95U U135G | ≤ -4.2
A20C C103G | -1.28
U6G A73U G81C A98C C99U U144C | -3.62
C51A C72U G74C C93A G141A | ≤ -4.2
A22U C27U G86U | -3.28
U56G G136A | 0.0437
C5G U90G C93A C116G A142C | ≤ -4.2
U90A U130A | ≤ -4.2
A41U G84C C103G | ≤ -4.2
U53A U61C C79G A115U A150U | ≤ -4.2
A40U C43U G70A U78G C87A A147G | ≤ -4.2
C51U U61A G84U | -2.8
A30C A41C C57A G62C G92A C131G | ≤ -4.2
G94A A115U | -1.76
C27G G84A G136U | ≤ -4.2
A73G G141A | -0.252
C14G A16U A39G G124A | ≤ -4.2
A49C C116A G143C | ≤ -4.2

Variant | polymerase ribozyme fitness (log ratio)
C43G G88A C95U C105A | ≤ -4.2
U9G C103A | -3.73
G11A U56A C76U U111C U148A | ≤ -4.2
C69G C96U A142C | -2.43
A23C A60G C96A C118U | ≤ -4.2
G46A A91G G136U | ≤ -4.2
A3C U15G A24G G117A U151A | ≤ -4.2
U61A C79A G83C | ≤ -4.2
G50A A120G A122U A150U | -2.03
C93G G141U | -2.01
U9A C149G | ≤ -4.2
U7G A64C A122G | ≤ -4.2
C38U G94A | -0.383
C32G A49C U53A C85U G86U C99A A138G A150G | -4.03
G50C C95A | -2.7
U31G C35U C57U G117A | -0.0701
A19U C75U U139G G140A U151G | ≤ -4.2
C8U A21C A28U U53A U77G G88U U145G A150C | ≤ -4.2
A73U C75A G92A | ≤ -4.2
G59C U109G | -0.84
U44A C93U C99A U111G A138G G152U | -3.36
U56A A73G C76U | 0.764
U55A C85A G141C | -1.86
A17U G80C C93A U101G | ≤ -4.2

Variant | polymerase ribozyme fitness (log ratio)
A52G U148G | -4.18
U4C G86A | -0.918
U33G G50C U56A U134G U145C | ≤ -4.2
A37C A39C C95U G133U | ≤ -4.2
A49C U146A | -3.98
C36U C114U | -3.21
A52G C76A | -0.0301
U53A G86A A91C G128C | ≤ -4.2
G67C A91C | ≤ -4.2
C14G G88U G140A | ≤ -4.2
G83A U90C | -3.51
A16C A19U | -1.03
A17G U31A U90C C93U C99G C125A A137C G143C | ≤ -4.2
A19G C85U | -1.3
A64U | -3.99
U82A C93U U145G | -2.53
C5A C10U A41C A49C U139G U151G | ≤ -4.2
A60G G143U | -1.77
A41C C43U C125U | ≤ -4.2
A3G A20G G48C G50C G67C G68A G83A U139C | ≤ -4.2
G74C G81C | -3.94
U9C C10G | -4.15
C14U C116G G128A C129G U135G | ≤ -4.2
